# Data as given in US20180362766A1, “Fluorogenic pH-Sensitive Dyes and Their Methods of Use” (Life Technologies Corporation, priority 2012, published 2018).
# Tested on: A 431 cells
# Assay: Live cell internalization (endocytosis) of dye-labeled EGF, fluorescence imaging
# Format: cell-based
# Description: A 431 cells were grown in complete medium on 35 mm poly-D-lysine coated glass bottom culture dishes from MatTek. On the day of the assay, cells were rinsed once with LCIS +1% BSA (Live Cell imaging solution, Cat# A14291DJ) and placed at 37° C. Control dishes received LCIS; EGF pretreatment dishes received 10 μg/mL unlabeled EGF in LCIS. Cells were incubated at 37° C. for 30 minutes. Cells were then cooled to 4° C. on ice for 10 minutes. Compound (24)-labeled EGF was added to the dishes 1:10 at 5 μg/mL from a 50 μg/mL stock in LCIS. These dishes were incubated on ice for 30 minutes, then washed 2× with cold LCIS and allowed to warm to 37° C. for 60 minutes before imaging with standard TRITC and FITC filter sets on a DeltaVision Core microscope. […] All images were matched for gain and exposure times.
molecule,measurement,setting,value
"Compound (24)-labeled EGF: epithelial growth factor (EGF) conjugated to Compound (24) STP ester, degree of substitution 1 (conjugate, UniProt P01133 23-1207, looked up, Pro-epidermal growth factor Compound (24) dye conjugate) Pro-epidermal growth factor: PQHWSCPEGTLAGNGNSTCVGPAPFLIFSHGNSIFRIDTEGTNYEQLVVDAGVSVIMDFHYNEKRIYWVDLERQLLQRVFLNGSRQERVCNIEKNVSGMAINWINEEVIWSNQQEGIITVTDMKGNNSHILLSALKYPANVAVDPVERFIFWSSEVAGSLYRADLDGVGVKALLETSEKITAVSLDVLDKRLFWIQYNREGSNSLICSCDYDGGSVHISKHPTQHNLFAMSLFGDRIFYSTWKMKTIWIANKHTGKDMVRINLHSSFVPLGELKVVHPLAQPKAEDDTWEPEQKLCKLRKGNCSSTVCGQDLQSHLCMCAEGYALSRDRKYCEDVNECAFWNHGCTLGCKNTPGSYYCTCPVGFVLLPDGKRCHQLVSCPRNVSECSHDCVLTSEGPLCFCPEGSVLERDGKTCSGCSSPDNGGCSQLCVPLSPVSWECDCFPGYDLQLDEKSCAASGPQPFLLFANSQDIRHMHFDGTDYGTLLSQQMGMVYALDHDPVENKIYFAHTALKWIERANMDGSQRERLIEEGVDVPEGLAVDWIGRRFYWTDRGKSLIGRSDLNGKRSKIITKENISQPRGIAVHPMAKRLFWTDTGINPRIESSSLQGLGRLVIASSDLIWPSGITIDFLTDKLYWCDAKQSVIEMANLDGSKRRRLTQNDVGHPFAVAVFEDYVWFSDWAMPSVMRVNKRTGKDRVRLQGSMLKPSSLVVVHPLAKPGADPCLYQNGGCEHICKKRLGTAWCSCREGFMKASDGKTCLALDGHQLLAGGEVDLKNQVTPLDILSKTRVSEDNITESQHMLVAEIMVSDQDDCAPVGCSMYARCISEGEDATCQCLKGFAGDGKLCSDIDECEMGVPVCPPASSKCINTEGGYVCRCSEGYQGDGIHCLDIDECQLGEHSCGENASCTNTEGGYTCMCAGRLSEPGLICPDSTPPPHLREDDHHYSVRNSDSECPLSHDGYCLHDGVCMYIEALDKYACNCVVGYIGERCQYRDLKWWELRHAGHGQQQKVIVVAVCVVVLVMLLLLSLWGAHYYRTQKLLSKNPKNPYEESSRDVRSRRPADTEDGMSSCPQPWFVVIKEHQDLKNGGQPVAGEDGQAADGSMQPTSWRQEPQLCGMGTEQGCWIPVSSDKGSCPQVMERSFHMPSYGTQTLEGGVEKPHSLLSANPLWQQRALDPPHQMELTQ",fluorescent signal from dye-labeled EGF internalization,cells pretreated with 10 μg/mL unlabeled EGF,no signal
same,fluorescent signal from dye-labeled EGF internalization,"untreated (control) plates, 5 μg/mL labeled EGF, 60 minutes at 37° C.",Specific signal
